The values that follow are results of earlier work, collected in publication PMC4309608.

What is called pKd is −log10 of the Kd, conventionally taken in molar units.

For data set [1], the target named is E-cadherin (Homo sapiens) (UniProt P12830).
The next data set deals with Met (Homo sapiens) (UniProt P08581).
Data set [2] has as its target TgRON2 (Toxoplasma gondii) (UniProt B6KV60).

pKd: −log10 of the molar value.

Chain of UniProt P12830 (P12830 155-709): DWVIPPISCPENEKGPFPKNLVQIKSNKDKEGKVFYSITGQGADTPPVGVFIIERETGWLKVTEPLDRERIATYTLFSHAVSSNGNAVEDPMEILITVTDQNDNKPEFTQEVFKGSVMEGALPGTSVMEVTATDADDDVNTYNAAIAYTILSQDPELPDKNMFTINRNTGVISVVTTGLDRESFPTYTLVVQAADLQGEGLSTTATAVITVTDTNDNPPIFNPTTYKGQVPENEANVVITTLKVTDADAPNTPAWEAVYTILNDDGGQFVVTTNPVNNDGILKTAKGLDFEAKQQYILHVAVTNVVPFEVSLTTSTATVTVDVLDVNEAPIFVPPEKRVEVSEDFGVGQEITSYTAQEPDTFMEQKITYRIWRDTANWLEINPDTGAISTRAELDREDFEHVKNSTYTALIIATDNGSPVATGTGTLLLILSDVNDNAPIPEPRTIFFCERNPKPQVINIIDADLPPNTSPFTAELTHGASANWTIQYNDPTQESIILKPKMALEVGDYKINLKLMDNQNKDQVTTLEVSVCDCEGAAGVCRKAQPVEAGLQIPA
Chain of UniProt B6KV60 (B6KV60 25-1277): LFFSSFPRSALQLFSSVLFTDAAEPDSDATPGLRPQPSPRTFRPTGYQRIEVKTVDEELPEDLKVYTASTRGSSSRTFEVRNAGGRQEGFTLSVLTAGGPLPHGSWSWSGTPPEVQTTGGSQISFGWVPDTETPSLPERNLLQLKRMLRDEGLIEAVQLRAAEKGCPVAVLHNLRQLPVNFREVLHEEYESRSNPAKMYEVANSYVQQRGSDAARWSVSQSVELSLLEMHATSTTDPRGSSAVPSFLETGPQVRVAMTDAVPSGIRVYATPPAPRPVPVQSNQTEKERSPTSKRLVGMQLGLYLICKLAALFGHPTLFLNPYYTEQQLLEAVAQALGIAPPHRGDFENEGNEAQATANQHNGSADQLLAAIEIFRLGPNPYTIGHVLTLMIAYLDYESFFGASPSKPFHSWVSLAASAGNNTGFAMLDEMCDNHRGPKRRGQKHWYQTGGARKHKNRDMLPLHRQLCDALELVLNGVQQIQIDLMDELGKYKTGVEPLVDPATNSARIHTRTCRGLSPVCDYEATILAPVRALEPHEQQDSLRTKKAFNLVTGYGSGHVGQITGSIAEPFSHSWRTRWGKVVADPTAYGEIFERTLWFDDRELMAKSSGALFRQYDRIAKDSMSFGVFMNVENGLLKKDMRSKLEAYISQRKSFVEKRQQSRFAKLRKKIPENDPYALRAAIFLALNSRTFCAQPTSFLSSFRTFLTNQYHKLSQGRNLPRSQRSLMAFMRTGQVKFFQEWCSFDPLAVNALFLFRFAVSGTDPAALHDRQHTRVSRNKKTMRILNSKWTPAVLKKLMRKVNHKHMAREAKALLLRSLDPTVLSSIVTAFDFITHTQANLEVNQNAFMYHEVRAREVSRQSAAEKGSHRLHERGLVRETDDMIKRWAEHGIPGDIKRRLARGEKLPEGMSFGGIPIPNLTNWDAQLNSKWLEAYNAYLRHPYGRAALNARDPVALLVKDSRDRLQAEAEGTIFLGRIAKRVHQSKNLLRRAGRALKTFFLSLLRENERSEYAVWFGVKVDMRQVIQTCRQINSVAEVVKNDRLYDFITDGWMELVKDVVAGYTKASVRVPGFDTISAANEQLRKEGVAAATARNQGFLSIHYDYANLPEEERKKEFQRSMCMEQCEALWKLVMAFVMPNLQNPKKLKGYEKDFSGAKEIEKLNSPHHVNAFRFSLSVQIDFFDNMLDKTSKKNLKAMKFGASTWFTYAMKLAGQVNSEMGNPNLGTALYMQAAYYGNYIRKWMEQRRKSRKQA
Chain of UniProt P08581 (P08581 25-932): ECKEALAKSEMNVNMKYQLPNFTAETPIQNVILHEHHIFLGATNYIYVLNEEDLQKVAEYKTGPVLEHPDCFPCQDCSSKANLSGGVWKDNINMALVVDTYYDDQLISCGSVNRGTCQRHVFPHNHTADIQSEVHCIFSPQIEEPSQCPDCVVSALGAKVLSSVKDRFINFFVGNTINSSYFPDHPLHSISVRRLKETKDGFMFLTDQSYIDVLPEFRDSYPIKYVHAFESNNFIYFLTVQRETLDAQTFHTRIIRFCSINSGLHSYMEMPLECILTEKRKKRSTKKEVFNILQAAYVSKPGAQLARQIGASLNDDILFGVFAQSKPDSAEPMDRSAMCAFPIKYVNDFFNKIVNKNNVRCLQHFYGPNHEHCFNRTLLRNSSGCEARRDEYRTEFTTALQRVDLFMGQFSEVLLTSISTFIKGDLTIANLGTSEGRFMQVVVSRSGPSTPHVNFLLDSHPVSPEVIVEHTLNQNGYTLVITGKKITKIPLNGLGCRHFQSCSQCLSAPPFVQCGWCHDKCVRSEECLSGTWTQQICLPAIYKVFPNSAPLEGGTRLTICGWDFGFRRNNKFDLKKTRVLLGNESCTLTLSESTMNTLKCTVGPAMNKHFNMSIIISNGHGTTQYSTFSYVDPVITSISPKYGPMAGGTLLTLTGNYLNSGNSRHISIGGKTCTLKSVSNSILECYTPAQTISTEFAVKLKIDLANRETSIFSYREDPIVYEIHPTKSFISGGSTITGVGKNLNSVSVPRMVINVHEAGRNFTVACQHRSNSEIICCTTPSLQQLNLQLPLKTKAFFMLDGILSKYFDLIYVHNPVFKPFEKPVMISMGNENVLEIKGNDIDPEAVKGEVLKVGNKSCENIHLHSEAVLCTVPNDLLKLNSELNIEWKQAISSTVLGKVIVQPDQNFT

For the substance InlA (from UniProt P0DJM0), in data set [1], the pKd is 5.10. For the substance InlB (from UniProt P0DQD3), the pKd in the data set with Met (Homo sapiens) was 7.60. Turning to TgAMA1 (from UniProt B6KAM0), in data set [2], the pKd is 7.82.
